The numbers were not newly measured in paper PMC8909277, which cites them from elsewhere.

A word on the Kd: it is the concentration at which binding is half-saturated.

Data set [1] has as its target claudin-9 (Homo sapiens) (UniProt O95484). Kind of data set: BLI. For orientation: BLI is a label-free optical method that tracks binding on a fibre tip over time.
In data set [2] the target is claudin-4 (Homo sapiens) (UniProt O14493). Kind of data set: SPR. (SPR reads the build-up and loss of mass on a sensor chip optically.)
UniProt O14493, sequence (O14493 whole entry): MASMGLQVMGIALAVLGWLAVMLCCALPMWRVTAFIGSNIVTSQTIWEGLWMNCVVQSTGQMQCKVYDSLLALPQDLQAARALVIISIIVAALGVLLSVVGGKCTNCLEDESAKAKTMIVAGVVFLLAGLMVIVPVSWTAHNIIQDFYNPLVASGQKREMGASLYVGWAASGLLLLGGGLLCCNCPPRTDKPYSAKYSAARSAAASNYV

UniProt O95484, sequence (O95484 whole entry): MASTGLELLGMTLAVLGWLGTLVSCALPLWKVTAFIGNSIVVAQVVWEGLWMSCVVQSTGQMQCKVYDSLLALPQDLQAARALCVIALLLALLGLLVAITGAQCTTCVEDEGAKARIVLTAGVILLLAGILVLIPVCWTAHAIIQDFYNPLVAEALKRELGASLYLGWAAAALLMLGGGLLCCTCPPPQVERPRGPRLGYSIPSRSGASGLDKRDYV

On to “cCpE C-terminal domain (from UniProt P01558)”, for which the figures for the Kd in data set [1] and in data set [2] were 5 nM and 3.4 nM, respectively.

Take CpE (from UniProt P01558): the Kd in data set [1] is 5 nM.
